Measurements taken from patent US20250333497A1, “ACTIVATING ANTIBODIES OF RECEPTOR PROTEINS PLXDC1 AND PLXDC2” (THE REGENTS OF THE UNIVERSITY OF CALIFORNIA, priority 2022, published 2025).

Tests used:
[1] = target: T1, full length PLXDC1 (PLXDC1-Full) (Homo sapiens, UniProt Q8IUK5); test: Domain A binding specificity: binding to full length PLXDC1 expressed in transfected cells; conditions: for binding to PLXDC1: antibodies of Table 3 tested for ability to bind Domain A; for binding to full length PLXDC1 (PLXDC1-Full): transfected into a cell line that does not express PLXDC1, FIG. 3-4
T1 construct: expressed in transfected cells
T1 sequence (Q8IUK5 19-500): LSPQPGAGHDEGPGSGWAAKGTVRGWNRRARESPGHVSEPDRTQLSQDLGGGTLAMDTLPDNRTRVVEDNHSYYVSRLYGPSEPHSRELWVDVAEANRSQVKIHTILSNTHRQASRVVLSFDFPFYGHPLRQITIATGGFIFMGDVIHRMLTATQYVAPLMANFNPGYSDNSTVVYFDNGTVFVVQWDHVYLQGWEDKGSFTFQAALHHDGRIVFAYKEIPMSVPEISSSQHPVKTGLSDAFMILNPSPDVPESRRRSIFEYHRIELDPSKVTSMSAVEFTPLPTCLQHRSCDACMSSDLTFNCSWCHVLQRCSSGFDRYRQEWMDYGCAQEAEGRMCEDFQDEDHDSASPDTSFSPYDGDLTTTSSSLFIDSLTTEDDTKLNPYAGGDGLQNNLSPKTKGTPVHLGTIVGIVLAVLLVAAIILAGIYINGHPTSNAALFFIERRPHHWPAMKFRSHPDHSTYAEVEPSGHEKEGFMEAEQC
Excerpt: (§1) The specific binding to Domain A of a PLXDC protein can be tested with a method described herein. In some embodiments, the method employs a PLXDC with the Domain A deleted. […] An example is Compound 369 as described above.
(§2) The Domain A-binding antibodies are 3-C11, 4-A8, 5-E2, 2-H2, 3-G6, 3-G7, 8-A7, 8-A9, 8-C9 and 8-D9.
(§3) Both full length PLXDC1 and Domain A deleted PLXDC1 (PLXDC1-dA) have an epitope tag on the N-terminus.

[2] = target: T2, Domain A-deleted PLXDC1 (PLXDC1-dA) (Homo sapiens, UniProt Q8IUK5); test: Domain A binding specificity: binding to Domain A-deleted PLXDC1 expressed in transfected cells; conditions: for binding to PLXDC1 mutant with Domain A deleted: antibodies of Table 3 tested for ability to bind Domain A; for binding to Domain A-deleted PLXDC1 (PLXDC1-dA): transfected into a cell line that does not express PLXDC1, FIG. 3-4
T2 construct: expressed in transfected cells
Excerpt: as §1, §2, §3

Row | Molecule | binding to PLXDC1 [1] | binding to PLXDC1 mutant with Domain A deleted [2] | binding to full length PLXDC1 (PLXDC1-Full) [1] | binding to Domain A-deleted PLXDC1 (PLXDC1-dA) [2]
1 | A010: VH SEQ ID NO:176, VL SEQ ID NO:177; Domain A-binding PLXDC1-activating antibody (antibody, V domains shown) VH: QVQLVQSGAEVKKPGSSVKVSCKASGGTFSDEAIHWVRQAPGQGLEWMGRIIPVLGIASYAQKFQGRVTITADESTSTAYMELSSLRSEDTAVYYCARGLSRRAFYFDYWGQGTLVTVSS VL: DIQMTQSPSSLSASVGDRVTITCRASQTIGNYLNWYQQKPGKAPKLLIYVASSLQSGVPSRFSGSGSGTDFTLTISSLQPEDFATYYCQQSYRYPYTFGQGTKVEIK | able to bind PLXDC1 | not the mutant with Domain A deleted |  | 
2 | A001: VH SEQ ID NO:38, VL SEQ ID NO:39; Domain A-binding PLXDC1-activating antibody (antibody, V domains shown) VH: EVQLLESGGGLVQPGGSLRLSCAASGFTFSSYAMSWVRQAPGKGLEWVSTIYASGATTYYADSVKGRFTISRDNSKNTLYLQMNSLRAEDTAVYYCARLKLYHAAFDIWGQGTLVTVSS VL: DIQMTQSPSSLSASVGDRVTITCRASQDISSYLNWYQQKPGKAPKLLIYTASSLQSGVPSRFSGSGSGTDFTLTISSLQPEDFATYYCQQSYSYPLTFGQGTKVEIK | able to bind PLXDC1 | not the mutant with Domain A deleted | only bound to full length PLXDC1 | did not bind to Domain A-deleted PLXDC1
3 | A002: VH SEQ ID NO:82, VL SEQ ID NO:83; Domain A-binding PLXDC1-activating antibody (antibody, V domains shown) VH: EVQLLESGGGLVQPGGSLRLSCAASGFTFKNYAMSWVRQAPGKGLEWVSAISASGGYTYYADSVKGRFTISRDNSKNTLYLQMNSLRAEDTAVYYCARGRWGAFDYWGQGTLVTVSS VL: QSVLTQPPSVSGAPGQRVTISCTGSSSNIGSGYDVHWYQQLPGTAPKLLIYGNRNRPSGVPDRFSGSKSGTSASLAITGLQAEDEADYYCQSYDSSLKTWVFGGGTKLTVL | able to bind PLXDC1 | not the mutant with Domain A deleted | only bound to full length PLXDC1 | did not bind to Domain A-deleted PLXDC1
4 | A004: VH SEQ ID NO:20, VL SEQ ID NO:21; Domain A-binding PLXDC1-activating antibody (antibody, V domains shown) VH: QVQLVESGGGVVQPGRSLRLSCAASGFTFSDYGMHWVRQAPGKGLEWVAVISYEGSNEYYADSVKGRFTISRDNSKNTLYLQMNSLRAEDTAVYYCARGSEGSGFDVWGQGTLVTVSS VL: DIQMTQSPSSLSASVGDRVTITCRASQRISNYLNWYQQKPGKAPKLLIYAASSLQSGVPSRFSGSGSGTDFTLTISSLQPEDFATYYCQQSYSPPYTFGQGTKVEIK | able to bind PLXDC1 | not the mutant with Domain A deleted | only bound to full length PLXDC1 | did not bind to Domain A-deleted PLXDC1
5 | A005: VH SEQ ID NO:70, VL SEQ ID NO:71; Domain A-binding PLXDC1-activating antibody (antibody, V domains shown) VH: QVQLVESGGGVVQPGRSLRLSCAASGFTFSDYGMHWVRQAPGKGLEWVAVISYDGSRKYYANSVKGRFTISRDNSKNTLYLQMNSLRAEDTAVYYCARGSYSDGFDVWGQGTLVTVSS VL: DIQMTQSPSSLSASVGDRVTITCRASQSISRYLNWYQQKTGKAPKLLIYGASSLQSGVPSRFSGSGSGTDFTLTISSLQPEDFATYYCQQSYSTPYTFGQGTKVEIK | able to bind PLXDC1 | not the mutant with Domain A deleted | only bound to full length PLXDC1 | did not bind to Domain A-deleted PLXDC1
6 | A007: VH SEQ ID NO:112, VL SEQ ID NO:113; Domain A-binding PLXDC1-activating antibody (antibody, V domains shown) VH: EVQLLESGGGLVQPGGSLRLSCAASGFTFRNYAMSWVRQAPGKGLEWVSSISGGGINTYYADSVKGRFTISRDNSKNTLYLQMNSLRAEDTAVYYCARVRSYSGPGYFDYWGQGTLVTVSS VL: EIVMTQSPATLSVSPGDRATLSCRASRSVSSNLAWYQQKPGQAPRLLIYGASTRATGIPARFSGSGSGTEFTLTISSLQSEDFAVYYCQQYYNWPLTFGQGTKVEIK | able to bind PLXDC1 | not the mutant with Domain A deleted | only bound to full length PLXDC1 | did not bind to Domain A-deleted PLXDC1
7 | A008: VH SEQ ID NO:116, VL SEQ ID NO:117; Domain A-binding PLXDC1-activating antibody (antibody, V domains shown) VH: EVQLLESGGGLVQPGGSLRLSCAASGFTFSNYAMSWVRQAPGKGLEWVSAISGGGSRTYYADSVKGRFTISRDNSKNTLYLQMNSLRAEDTAVYYCAREARVLGYSLDYWGQGTLVTVSS VL: DIQMTQSPSSLSASVGDRVTITCRASQRIGKYLNWYQQKPGKAPKLLIYAASSLQSGVPSRFSGSGSGTDFTLTISSLQPEDFATYYCQQSYSYPLTFGQGTKVEIK | able to bind PLXDC1 | not the mutant with Domain A deleted |  | 
